1 molecule from US6150511 (Fox Chase Cancer Center) can be followed below.

The data set concerns the target LexA repressor (UniProt P0A7C2 P0A7C2:1-202). Description: operator region protected from integration by wild type IN; 5 mM MgCl2, 37 C. As to conditions: chain copies: 2 (stated). The procedure: Assay for integration into pBR322 targets containing lexA operators. Integration of the model viral DNA duplex into a heterologous target was measured using a PCR-based assay similar to that described by Pryciak et al., EMBO J. 11: 291–303 (1992). The target DNAs, pBR322 derivatives, contain the lexA operator region. To measure integration into a specific region, a "target" PCR primer was selected, which was ca. 250 bp from the lexA operator region. The "viral" primer was identical to the 16nt DNA strand to be joined to the target DNA. The length of the PCR product corresponds to the distance from the target primer site to the integration site. Integration assays contained approximately 0.2 pmoles of PstI linerarized plasmid target DNA, 35 pmoles of IN or IN-lexA fusion protein and 0.1 pmol of viral DNA ends (model substrate). The reaction mixture contained 20 mM Tris-HCl and 5 mM MgCl_2. The viral DNA substrate was a 18 mer/16 mer duplex with a recessed end. This corresponds to a processed viral DNA end, as described previously (Katzman et al., 1989, supra). […] Recovery of target DNA was monitored by agarose gel electrophoresis. […] Products were analyzed on 7% acrylamide-urea sequencing gels. Fragment sizes were determined using a ØX174HaeIII digest and a 10 bp ladder (Bethesda Research Labs).

Chain of LexA repressor (P0A7C2 whole entry, one chain of several): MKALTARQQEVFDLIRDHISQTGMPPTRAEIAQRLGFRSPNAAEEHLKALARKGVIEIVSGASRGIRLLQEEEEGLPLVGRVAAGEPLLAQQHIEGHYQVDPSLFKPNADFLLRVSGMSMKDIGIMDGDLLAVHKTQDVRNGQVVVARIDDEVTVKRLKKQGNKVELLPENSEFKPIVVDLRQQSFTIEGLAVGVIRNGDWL

B1: tandem lexA operator segment (in pBR711-2) (dsDNA)
DNA 1: GGGGTCGACATTACTGTATATATATACAGCATAACTGTATATATATACAGTATAGGATCCGGG
DNA 2: CCCGGATCCTATACTGTATATATATACAGTTATGCTGTATATATATACAGTAATGTCGACCCC
On to B1, for which the binding result was “binds”.
